Measured values taken from the supplement of paper PMC10065799, “High-throughput profiling of sequence recognition by tyrosine kinases and SH2 domains using bacterial peptide display” (eLife, 2023).

Key:
[1] = molecular target: Fes (UniProt P07332); test: phosphorylation enrichment, bacterial display (enrichment ratio); higher = better substrate or ligand; peptides without Tyr show the background
[2] = molecular target: Jak2 (UniProt O60674); test: as above
[3] = molecular target: FGFR1 (UniProt P11362); test: as above
[4] = molecular target: Fyn (UniProt P06241); test: as above
[5] = molecular target: EPHB2 (UniProt P29323); test: as above
[6] = tested on: Fer (mouse); test: as above
[7] = molecular target: Hck (UniProt P08631); test: as above
[8] = tested on: c-Src; test: as above
[9] = molecular target: FGFR3 (UniProt P22607); test: as above
[10] = molecular target: EPHB1 (UniProt P54762); test: as above
[11] = tested on: c-Abl (mouse); test: as above
[12] = tested on: AncSZ; test: as above
[13] = molecular target: MERTK (UniProt Q12866); test: as above
[14] = molecular target: Grb2 SH2 (UniProt P62993); test: SH2 binding enrichment of the phosphorylated peptide, bacterial display (enrichment ratio); higher = better substrate or ligand; peptides without Tyr show the background
[15] = molecular target: SHP2-C SH2; test: as above
[16] = molecular target: c-Src SH2; test: as above
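Wherever SH2 binding enrichment of the phosphorylated peptide, bacterial display is given: peptide library displayed on the E. coli surface as eCPX fusions, selected cells deep-sequenced, score is each peptide's frequency after selection divided by its frequency in the input.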
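Wherever phosphorylation enrichment, bacterial display is given: 11-residue human phosphosite peptides and single-mutation variants displayed on the E. coli surface, counted by deep sequencing, each peptide's frequency after selection divided by its frequency in the unselected input library; frequency after pTyr selection over input frequency; kinase dosed for 20-30% of maximal phosphorylation in three min.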

Chain of Jak2 (O60674 whole entry, looked up): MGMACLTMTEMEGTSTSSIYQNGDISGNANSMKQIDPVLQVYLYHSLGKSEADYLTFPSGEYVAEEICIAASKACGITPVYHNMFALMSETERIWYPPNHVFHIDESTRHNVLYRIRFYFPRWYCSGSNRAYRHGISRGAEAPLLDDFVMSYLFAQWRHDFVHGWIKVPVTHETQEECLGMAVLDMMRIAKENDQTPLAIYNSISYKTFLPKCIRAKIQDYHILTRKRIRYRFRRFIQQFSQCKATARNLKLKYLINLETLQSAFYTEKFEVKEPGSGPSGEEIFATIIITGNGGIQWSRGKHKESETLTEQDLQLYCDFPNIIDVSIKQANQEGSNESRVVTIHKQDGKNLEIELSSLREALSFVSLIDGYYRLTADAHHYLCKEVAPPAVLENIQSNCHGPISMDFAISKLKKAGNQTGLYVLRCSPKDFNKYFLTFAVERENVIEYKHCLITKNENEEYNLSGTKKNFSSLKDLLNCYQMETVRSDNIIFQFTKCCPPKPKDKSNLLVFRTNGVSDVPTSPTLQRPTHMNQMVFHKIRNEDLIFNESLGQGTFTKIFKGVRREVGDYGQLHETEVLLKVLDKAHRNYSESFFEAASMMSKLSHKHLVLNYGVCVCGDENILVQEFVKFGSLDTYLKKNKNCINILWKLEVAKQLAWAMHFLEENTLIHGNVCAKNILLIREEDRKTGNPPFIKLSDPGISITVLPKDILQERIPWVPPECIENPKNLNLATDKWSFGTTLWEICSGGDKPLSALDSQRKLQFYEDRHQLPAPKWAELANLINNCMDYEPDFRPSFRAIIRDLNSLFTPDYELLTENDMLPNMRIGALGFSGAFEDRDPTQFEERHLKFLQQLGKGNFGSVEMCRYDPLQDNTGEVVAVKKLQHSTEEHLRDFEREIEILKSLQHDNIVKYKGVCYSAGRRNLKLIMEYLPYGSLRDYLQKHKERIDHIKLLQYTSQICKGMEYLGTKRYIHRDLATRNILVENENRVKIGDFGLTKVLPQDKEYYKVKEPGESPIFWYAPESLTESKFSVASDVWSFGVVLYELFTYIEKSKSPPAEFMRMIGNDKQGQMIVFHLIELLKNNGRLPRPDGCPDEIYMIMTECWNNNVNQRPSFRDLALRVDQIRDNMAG
Chain of FGFR3 (P22607 whole entry, looked up): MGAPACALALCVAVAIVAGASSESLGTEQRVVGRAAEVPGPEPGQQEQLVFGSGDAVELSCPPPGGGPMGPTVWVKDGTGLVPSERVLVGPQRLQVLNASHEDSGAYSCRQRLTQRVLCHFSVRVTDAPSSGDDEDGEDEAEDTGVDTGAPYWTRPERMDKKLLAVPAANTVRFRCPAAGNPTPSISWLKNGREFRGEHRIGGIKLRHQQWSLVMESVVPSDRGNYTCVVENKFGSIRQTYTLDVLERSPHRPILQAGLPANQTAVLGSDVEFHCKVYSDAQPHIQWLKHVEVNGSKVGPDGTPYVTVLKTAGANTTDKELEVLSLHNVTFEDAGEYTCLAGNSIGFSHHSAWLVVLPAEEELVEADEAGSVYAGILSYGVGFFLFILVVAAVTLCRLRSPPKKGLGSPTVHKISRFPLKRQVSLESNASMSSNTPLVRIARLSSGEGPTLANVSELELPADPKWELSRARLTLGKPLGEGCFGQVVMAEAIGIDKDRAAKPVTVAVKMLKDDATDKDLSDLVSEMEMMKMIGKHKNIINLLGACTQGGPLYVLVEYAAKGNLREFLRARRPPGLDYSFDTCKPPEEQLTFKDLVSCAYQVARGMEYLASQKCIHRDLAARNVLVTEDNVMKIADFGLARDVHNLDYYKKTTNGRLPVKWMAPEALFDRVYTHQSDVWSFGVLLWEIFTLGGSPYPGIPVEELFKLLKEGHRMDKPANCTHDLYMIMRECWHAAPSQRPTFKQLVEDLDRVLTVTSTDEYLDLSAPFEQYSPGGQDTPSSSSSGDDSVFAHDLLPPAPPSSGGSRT
Chain of FGFR1 (P11362 whole entry, looked up): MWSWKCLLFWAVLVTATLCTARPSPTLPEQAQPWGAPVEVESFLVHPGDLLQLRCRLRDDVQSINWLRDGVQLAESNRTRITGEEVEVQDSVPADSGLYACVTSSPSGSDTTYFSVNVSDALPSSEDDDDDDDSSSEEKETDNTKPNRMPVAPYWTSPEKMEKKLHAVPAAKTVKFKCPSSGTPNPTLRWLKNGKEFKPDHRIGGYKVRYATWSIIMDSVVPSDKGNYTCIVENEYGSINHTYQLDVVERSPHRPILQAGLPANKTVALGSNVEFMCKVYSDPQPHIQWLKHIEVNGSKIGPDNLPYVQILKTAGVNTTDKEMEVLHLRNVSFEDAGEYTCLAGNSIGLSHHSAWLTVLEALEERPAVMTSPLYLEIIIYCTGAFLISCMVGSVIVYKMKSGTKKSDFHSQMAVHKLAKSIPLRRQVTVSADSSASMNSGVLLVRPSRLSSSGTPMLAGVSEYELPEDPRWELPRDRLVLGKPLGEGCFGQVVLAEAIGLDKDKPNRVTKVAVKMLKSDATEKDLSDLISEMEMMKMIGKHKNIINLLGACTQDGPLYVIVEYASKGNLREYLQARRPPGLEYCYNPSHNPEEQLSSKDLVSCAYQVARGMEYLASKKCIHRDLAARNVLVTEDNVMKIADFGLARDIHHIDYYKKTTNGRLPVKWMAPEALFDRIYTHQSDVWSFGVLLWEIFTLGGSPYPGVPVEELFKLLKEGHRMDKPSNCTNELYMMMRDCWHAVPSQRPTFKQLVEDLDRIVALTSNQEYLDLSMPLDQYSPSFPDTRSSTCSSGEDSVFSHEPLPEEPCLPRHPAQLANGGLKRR
Chain of MERTK (Q12866 whole entry, looked up): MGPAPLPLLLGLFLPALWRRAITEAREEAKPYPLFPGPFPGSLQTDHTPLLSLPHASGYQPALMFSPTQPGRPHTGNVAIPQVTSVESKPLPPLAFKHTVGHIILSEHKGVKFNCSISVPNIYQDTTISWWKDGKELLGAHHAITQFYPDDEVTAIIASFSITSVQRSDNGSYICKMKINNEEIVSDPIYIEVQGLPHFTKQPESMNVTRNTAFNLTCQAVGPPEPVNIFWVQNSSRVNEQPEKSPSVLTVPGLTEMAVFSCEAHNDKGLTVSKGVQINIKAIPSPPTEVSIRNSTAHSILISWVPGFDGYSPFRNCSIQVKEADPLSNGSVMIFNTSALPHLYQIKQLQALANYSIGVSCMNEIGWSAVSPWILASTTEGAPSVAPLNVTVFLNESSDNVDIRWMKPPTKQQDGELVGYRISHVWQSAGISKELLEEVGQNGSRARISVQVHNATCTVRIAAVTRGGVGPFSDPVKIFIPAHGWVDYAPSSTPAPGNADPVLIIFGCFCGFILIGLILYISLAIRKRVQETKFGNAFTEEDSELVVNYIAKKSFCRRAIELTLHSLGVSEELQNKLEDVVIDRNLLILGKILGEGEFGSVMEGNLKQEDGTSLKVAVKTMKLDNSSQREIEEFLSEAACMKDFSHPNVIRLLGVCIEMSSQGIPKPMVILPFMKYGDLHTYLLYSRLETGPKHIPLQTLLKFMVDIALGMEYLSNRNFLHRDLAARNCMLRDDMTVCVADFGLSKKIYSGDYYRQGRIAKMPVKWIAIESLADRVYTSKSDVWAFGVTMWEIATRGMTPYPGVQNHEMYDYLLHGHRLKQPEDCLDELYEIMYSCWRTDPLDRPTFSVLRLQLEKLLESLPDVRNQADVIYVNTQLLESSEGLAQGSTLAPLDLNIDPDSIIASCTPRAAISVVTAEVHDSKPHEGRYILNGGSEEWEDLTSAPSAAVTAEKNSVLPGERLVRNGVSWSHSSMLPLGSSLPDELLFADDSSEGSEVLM
Chain of EPHB2 (P29323 whole entry, looked up): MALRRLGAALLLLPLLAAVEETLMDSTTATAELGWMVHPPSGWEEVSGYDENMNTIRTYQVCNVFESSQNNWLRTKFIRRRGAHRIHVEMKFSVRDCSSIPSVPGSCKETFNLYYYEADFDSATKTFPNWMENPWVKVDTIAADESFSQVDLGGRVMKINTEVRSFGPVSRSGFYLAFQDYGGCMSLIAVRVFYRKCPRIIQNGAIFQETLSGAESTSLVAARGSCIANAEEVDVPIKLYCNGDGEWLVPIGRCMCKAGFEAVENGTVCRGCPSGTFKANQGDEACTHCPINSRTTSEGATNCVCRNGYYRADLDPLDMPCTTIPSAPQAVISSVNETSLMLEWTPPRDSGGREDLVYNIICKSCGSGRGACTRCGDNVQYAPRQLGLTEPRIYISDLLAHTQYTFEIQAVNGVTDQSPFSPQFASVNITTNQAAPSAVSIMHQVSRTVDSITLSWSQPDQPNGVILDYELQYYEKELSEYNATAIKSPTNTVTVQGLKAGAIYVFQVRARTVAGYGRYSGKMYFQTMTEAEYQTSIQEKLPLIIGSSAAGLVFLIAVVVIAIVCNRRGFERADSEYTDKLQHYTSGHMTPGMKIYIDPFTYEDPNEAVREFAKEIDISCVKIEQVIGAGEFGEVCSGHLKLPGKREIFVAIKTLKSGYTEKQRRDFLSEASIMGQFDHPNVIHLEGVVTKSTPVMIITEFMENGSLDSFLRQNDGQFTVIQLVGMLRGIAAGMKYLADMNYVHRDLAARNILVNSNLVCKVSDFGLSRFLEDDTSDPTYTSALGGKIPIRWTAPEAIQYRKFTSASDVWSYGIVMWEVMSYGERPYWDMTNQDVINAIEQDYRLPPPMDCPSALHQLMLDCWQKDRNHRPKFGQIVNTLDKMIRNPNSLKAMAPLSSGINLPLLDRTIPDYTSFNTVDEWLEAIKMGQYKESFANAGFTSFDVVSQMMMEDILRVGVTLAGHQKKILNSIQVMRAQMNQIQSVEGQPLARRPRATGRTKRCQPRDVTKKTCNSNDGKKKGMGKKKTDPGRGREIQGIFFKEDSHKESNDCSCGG

SH2 binding enrichment [14] | SH2 binding enrichment [15] | SH2 binding enrichment [16] | Sequence | phosphorylation enrichment [1] | phosphorylation enrichment [2] | phosphorylation enrichment [3] | phosphorylation enrichment [4] | phosphorylation enrichment [5] | phosphorylation enrichment [6] | phosphorylation enrichment [7] | phosphorylation enrichment [8] | phosphorylation enrichment [9] | phosphorylation enrichment [10] | phosphorylation enrichment [11] | phosphorylation enrichment [12] | phosphorylation enrichment [13]
0.985 | 2.14 | 0.649 | GGMTEYKLVVV [KRAS_Y4] | 0.929 | 0.685 | 1.01 | 0.488 | 0.569 | 0.423 | 0.446 | 0.369 | 0.776 | 0.514 | 0.539 | 0.852 | 0.368
0.834 | 0.645 | 0.745 | RNNTEYVRDIG [MUSK_Y577_I575T] | 0.582 | 0.364 | 0.418 | 0.496 | 0.41 | 0.302 | 0.428 | 0.328 | 0.427 | 0.422 | 0.479 | 0.717 | 0.33
1.07 | 0.766 | 0.774 | WSQAMYPDLGP [STARD8_Y330_R327Q] | 0.921 | 0.765 | 0.493 | 0.47 | 0.636 | 0.475 | 0.486 | 0.47 | 0.583 | 0.476 | 0.648 | 1.06 | 0.393
1.86 | 2.08 | 1.51 | RLQAAYNLVKR [PFKM_Y103_R100Q] | 1.19 | 0.866 | 0.525 | 0.731 | 0.388 | 0.494 | 0.633 | 0.526 | 0.489 | 0.59 | 0.853 | 0.787 | 0.541
1.16 | 0.702 | 1.84 | NYYDLYGGEKF [PTPN11_Y66_D61N] | 1.03 | 1.97 | 13.4 | 5.82 | 12.1 | 2.32 | 5.52 | 4.47 | 11.7 | 10.6 | 0.725 | 1.48 | 7.49
0.855 | 0.6 | 0.616 | TNDRLYLRSLE [MTM1_Y71_Y68D] | 0.978 | 0.937 | 0.438 | 0.458 | 0.452 | 0.411 | 0.443 | 0.535 | 0.503 | 0.514 | 0.651 | 0.881 | 0.376
0.839 | 0.724 | 7.1 | QTENKYDSVSG [EIF2AK3_Y565] | 1.13 | 1.98 | 0.912 | 0.604 | 0.561 | 0.384 | 0.783 | 0.467 | 0.64 | 0.407 | 0.56 | 0.865 | 0.615
0.714 | 0.674 | 0.437 | DAVCFYRMENA [NPHS2_Y195_I192V_YF] | 1.23 | 1.22 | 0.698 | 0.986 | 0.685 | 0.614 | 0.788 | 3.07 | 1.06 | 0.698 | 0.882 | 1.21 | 0.695

Sequence | SH2 binding enrichment [14] | SH2 binding enrichment [15] | SH2 binding enrichment [16] | phosphorylation enrichment [1] | phosphorylation enrichment [2] | phosphorylation enrichment [3] | phosphorylation enrichment [4] | phosphorylation enrichment [5] | phosphorylation enrichment [6] | phosphorylation enrichment [7] | phosphorylation enrichment [8] | phosphorylation enrichment [9] | phosphorylation enrichment [10] | phosphorylation enrichment [11] | phosphorylation enrichment [12] | phosphorylation enrichment [13]
RIFDFYSARKA [STOX1_Y858_YF] | 0.75 | 0.538 | 0.529 | 1.59 | 0.729 | 0.82 | 0.849 | 0.847 | 0.72 | 1.33 | 0.645 | 0.979 | 1.1 | 1.04 | 1.21 | 0.644
